From patent US20200181255A1 (Amgen, published 2020) come the findings set out here.

Assay [1] deals with T1, recombinant cynomolgous IL-23 (cynomolgous).
T1 chain 1: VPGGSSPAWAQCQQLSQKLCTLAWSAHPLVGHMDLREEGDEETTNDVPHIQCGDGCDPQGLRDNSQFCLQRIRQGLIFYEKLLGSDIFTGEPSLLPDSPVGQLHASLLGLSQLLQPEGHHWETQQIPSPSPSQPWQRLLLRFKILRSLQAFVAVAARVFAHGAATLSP
T1 chain 2: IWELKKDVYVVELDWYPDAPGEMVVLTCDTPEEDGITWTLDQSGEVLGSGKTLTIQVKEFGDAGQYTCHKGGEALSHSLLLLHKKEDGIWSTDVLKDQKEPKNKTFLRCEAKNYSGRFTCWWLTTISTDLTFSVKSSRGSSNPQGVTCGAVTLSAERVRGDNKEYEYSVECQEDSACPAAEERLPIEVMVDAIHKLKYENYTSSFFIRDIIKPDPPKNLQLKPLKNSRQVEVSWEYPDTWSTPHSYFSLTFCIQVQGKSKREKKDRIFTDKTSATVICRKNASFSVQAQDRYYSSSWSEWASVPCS
The experiment in a line: cell-based or functional assay.

Assay [2] addresses T2, recombinant human IL-23 (human, UniProt Q9NPF7 20-189; P29460 23-328).
T2 sequence 1: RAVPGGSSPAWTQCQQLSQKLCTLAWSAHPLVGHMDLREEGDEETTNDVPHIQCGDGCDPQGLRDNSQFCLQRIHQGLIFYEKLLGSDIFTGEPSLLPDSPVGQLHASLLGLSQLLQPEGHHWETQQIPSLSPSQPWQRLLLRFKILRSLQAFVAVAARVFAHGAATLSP
T2 sequence 2: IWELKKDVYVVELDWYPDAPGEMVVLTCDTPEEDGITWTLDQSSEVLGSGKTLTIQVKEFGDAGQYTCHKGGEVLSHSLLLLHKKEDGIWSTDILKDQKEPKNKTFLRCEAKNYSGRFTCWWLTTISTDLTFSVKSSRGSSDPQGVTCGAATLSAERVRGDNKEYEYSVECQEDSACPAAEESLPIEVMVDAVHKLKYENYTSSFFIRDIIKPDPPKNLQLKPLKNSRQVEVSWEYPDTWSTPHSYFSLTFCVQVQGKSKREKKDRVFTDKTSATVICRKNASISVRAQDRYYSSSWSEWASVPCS
The experiment in a line: cell-based or functional assay.

Assay [3] deals with T2, recombinant human IL-23. The experiment in a line: KinExA. (In general: Kinetic exclusion samples the free partner from a solution-phase mixture.)
The target in assay [4] is T2, recombinant human IL-23. The experiment in a line: KinExA, derived from KD=Koff/Kon.
For assay [5], the target named is T2, recombinant human IL-23. The experiment in a line: KinExA, solution equilibrium, rhuIL-23-coated beads.
Protocol: Normal human serum (NHS)-activated Sepharose 4 fast flow beads (Amersham Biosciences, part of GE Healthcare, Uppsala, Sweden), are pre-coated with rhuIL-23 and blocked with 1 m Tris buffer with 10 mg/mL BSA. 50 pM of IL-23 antibody is incubated with rhuIL-23 (12 points of 1:2 dilutions starting from 800 pM) at room temperature for 72 hours before it is run through the rhuIL-23-coated Sepharose beads. The amount of the bead-bound antibody was quantified by fluorescent (Cy5) labeled goat anti-human-Fc antibody (Jackson Immuno Research, West Grove, Pa.). The binding signal is proportional to the amount of free antibody at equilibrium.
The target of assay [6] is T3, Native human IL-23 (human, UniProt Q9NPF7 20-189; P29460 23-328).
T3 sequence 1: T2 sequence 1
T3 sequence 2: T2 sequence 2
The experiment in a line: cell-based or functional assay.

The target of assay [7] is T1, recombinant cynomolgous IL-23. Briefly: cell-based or functional assay.
Assay [8] has as its target T2, recombinant human IL-23. The experiment in a line: cell-based or functional assay. This is another data set of the same source.
Assay [9] has as its target T1, recombinant cynomolgous IL-23. The experiment in a line: cell-based or functional assay.
For assay [10], the target named is T2, recombinant human IL-23. Briefly: cell-based or functional assay. The source holds these as a separate data set.
The target in assay [11] is T3, Native human IL-23. The experiment in a line: cell-based or functional assay. The source holds these as a separate data set.
Assay [12] deals with T1, recombinant cynomolgous IL-23. Briefly: cell-based or functional assay.
For assay [13], the target named is T2, recombinant human IL-23. Briefly: cell-based or functional assay. The source holds these as a separate data set.

B1: Antibody B (antibody, V domains shown)
VH: QVQLQESGPGLVKPSQTLSLTCTVSGGSISSGGYYWSWIRQHPGKGLEWIGHIHYSGNTYYNPSLKSRVTISVDTSKNQFSLKLSSVTAADTAVYYCAKNRGFYYGMDVWGQGTTVTVSS
VL: DIQMTQSPSSVSASVGDRVTITCRASQVISSWLAWYQQKPGKAPSLLIYAASSLQSGVPSRFSGSVSGTDFTLTISSLQPEDFATYYCQQANSFPFTFGPGTKVDFK
notes: also called VH9/VL9
By kon is commonly meant the rate constant with which the complex forms. What is called koff is the rate constant with which the complex falls apart. Broadly, the Kd is the concentration at which binding is half-saturated. As to B1, the “IC50 (pM), IFNγ human whole blood assay” value in [1] was determined as 161 pM; with recombinant human IL-23 [2] it was 117 pM. Also, the kon with recombinant human IL-23 [3] was 1.17e+06 M⁻¹ s⁻¹. Besides, the koff with recombinant human IL-23 [4] worked out at 4.7e-06 s⁻¹. The dissociation constant (Kd) with recombinant human IL-23 [5] is 3.99 pM. Moreover, the entries for the “IC50 (pM), NK cell assay (IFNγ)” value (in the assay with Native human IL-23 [6]; in assay [7]; with recombinant human IL-23 [8]) were 85 pM, 19 pM and 48 pM, respectively. The “IC50 (pM), IL-22 human whole blood assay” value stood at 113 pM in assay [9] and 117 pM with recombinant human IL-23 [10]. The entries for the “IC50 (pM), STAT-luciferase assay” value (with Native human IL-23 [11]; in assay [12]; with recombinant human IL-23 [13]) were 45 pM, 130 pM and 100 pM, respectively.
